The values below come from the supplement of paper PMC9112550, “Optimization of the antimicrobial peptide Bac7 by deep mutational scanning” (BMC Biology, 2022).

The subject of this data set is Escherichia coli TOP10. Nature of the data set: shrunken log2 fold change of peptide-encoding DNA abundance (4.5 h post-induction vs induction); higher = less antimicrobial activity (less host growth inhibition). The note with it: time post-induction: 4.5 h; library: site-saturation at positions 5, 18, 19, 20.
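Also: peptides expressed intracellularly from a pBAD plasmid library in pooled LB shake-flask culture, induced with 0.3% L-arabinose, DNA abundance read by NGS, three biological replicates, DESeq2 with apeglm shrinkage.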

For the sequence RRIRYRPPRLPRPRPRPMKDPRP, the “shrunken log2 fold change” value is -0.317.

As for RRIRWRPPRLPRPRPRPSLPPRP, the “shrunken log2 fold change” value is -0.133.

With RRIRDRPPRLPRPRPRPWQDPRP, the “shrunken log2 fold change” value was -0.0397.

For the sequence RRIRDRPPRLPRPRPRPDKVPRP, the “shrunken log2 fold change” value was -0.159.

RRIRIRPPRLPRPRPRPIFWPRP: the “shrunken log2 fold change” value came to 0.397.

Take RRIRFRPPRLPRPRPRPDNLPRP: the “shrunken log2 fold change” value was 0.0632.

On to RRIRTRPPRLPRPRPRPVDMPRP, for which the “shrunken log2 fold change” value is -0.238.

With RRIRQRPPRLPRPRPRPQEAPRP, the “shrunken log2 fold change” value is 0.0238.

Consider RRIRHRPPRLPRPRPRPRTEPRP, for which the “shrunken log2 fold change” value was 0.218.

As to RRIRMRPPRLPRPRPRPDDSPRP, the “shrunken log2 fold change” value stood at 0.175.

Regarding RRIRHRPPRLPRPRPRPWGNPRP, the “shrunken log2 fold change” value was -0.0654.

Consider RRIRERPPRLPRPRPRPVTQPRP, for which the “shrunken log2 fold change” value is -0.282.

On to RRIRERPPRLPRPRPRPKLAPRP, for which the “shrunken log2 fold change” value is 0.00329.

For RRIRDRPPRLPRPRPRPAIFPRP, the “shrunken log2 fold change” value worked out at 0.617.

Consider RRIRVRPPRLPRPRPRPMFWPRP, for which the “shrunken log2 fold change” value came to 0.285.

For the sequence RRIRNRPPRLPRPRPRPDRWPRP, the “shrunken log2 fold change” value was 0.00119.

Consider RRIRGRPPRLPRPRPRPERLPRP, for which the “shrunken log2 fold change” value was determined as 0.586.

Consider RRIRQRPPRLPRPRPRPNLDPRP, for which the “shrunken log2 fold change” value was 0.0163.

As to RRIRARPPRLPRPRPRPGYSPRP, the “shrunken log2 fold change” value was -0.35.

Regarding RRIRVRPPRLPRPRPRPINGPRP, the “shrunken log2 fold change” value was -0.17.

Turning to RRIRSRPPRLPRPRPRPTVAPRP, the “shrunken log2 fold change” value was found to be 0.243.

As to RRIRDRPPRLPRPRPRPKNNPRP, the “shrunken log2 fold change” value is -0.556.

Turning to RRIRWRPPRLPRPRPRPKPCPRP, the “shrunken log2 fold change” value came out at 0.229.

For the sequence RRIRSRPPRLPRPRPRPTNSPRP, the “shrunken log2 fold change” value is -0.24.

With RRIRLRPPRLPRPRPRPELWPRP, the “shrunken log2 fold change” value turned out to be 0.626.

On to RRIRSRPPRLPRPRPRPNRVPRP, for which the “shrunken log2 fold change” value is -0.048.

Take RRIRERPPRLPRPRPRPECHPRP: the “shrunken log2 fold change” value came to 0.0213.

For RRIRNRPPRLPRPRPRPNITPRP, the “shrunken log2 fold change” value was -0.693.

With RRIRCRPPRLPRPRPRPTPWPRP, the “shrunken log2 fold change” value came to 0.49.

Regarding RRIRLRPPRLPRPRPRPFHDPRP, the “shrunken log2 fold change” value was -0.713.

Turning to RRIRPRPPRLPRPRPRPTSHPRP, the “shrunken log2 fold change” value was -0.235.

As to RRIRHRPPRLPRPRPRPDWFPRP, the “shrunken log2 fold change” value is -0.00508.

On to RRIRMRPPRLPRPRPRPCGCPRP, for which the “shrunken log2 fold change” value is 0.0371.

With RRIRCRPPRLPRPRPRPPVYPRP, the “shrunken log2 fold change” value was found to be 0.000934.

For the sequence RRIRTRPPRLPRPRPRPKSHPRP, the “shrunken log2 fold change” value was -0.365.

On to RRIRHRPPRLPRPRPRPPSDPRP, for which the “shrunken log2 fold change” value came to 0.146.

Regarding RRIRSRPPRLPRPRPRPDASPRP, the “shrunken log2 fold change” value was 0.495.

RRIRLRPPRLPRPRPRPSPYPRP: the “shrunken log2 fold change” value is -0.674.

In the case of RRIRMRPPRLPRPRPRPIKMPRP, the “shrunken log2 fold change” value was 0.14.

In the case of RRIRGRPPRLPRPRPRPHQPPRP, the “shrunken log2 fold change” value came to 0.18.

RRIRIRPPRLPRPRPRPTSYPRP: the “shrunken log2 fold change” value was -0.261.

Regarding RRIRDRPPRLPRPRPRPFWLPRP, the “shrunken log2 fold change” value worked out at 0.00235.

On to RRIRHRPPRLPRPRPRPLWPPRP, for which the “shrunken log2 fold change” value worked out at 0.27.

On to RRIRIRPPRLPRPRPRPYFEPRP, for which the “shrunken log2 fold change” value was -1.2.

For the sequence RRIRSRPPRLPRPRPRPACTPRP, the “shrunken log2 fold change” value amounted to 0.28.

Turning to RRIRWRPPRLPRPRPRPKHNPRP, the “shrunken log2 fold change” value is -0.152.

For the sequence RRIRIRPPRLPRPRPRPENVPRP, the “shrunken log2 fold change” value is 0.267.

Consider RRIRWRPPRLPRPRPRPAWMPRP, for which the “shrunken log2 fold change” value came to 0.139.

RRIRDRPPRLPRPRPRPHTQPRP: the “shrunken log2 fold change” value was -0.455.

RRIRGRPPRLPRPRPRPDKYPRP: the “shrunken log2 fold change” value was -0.136.

For RRIRLRPPRLPRPRPRPWNLPRP, the “shrunken log2 fold change” value was -0.0149.

Consider RRIRCRPPRLPRPRPRPELHPRP, for which the “shrunken log2 fold change” value was 0.0685.

Take RRIRCRPPRLPRPRPRPDACPRP: the “shrunken log2 fold change” value worked out at 0.175.

Take RRIRYRPPRLPRPRPRPYVLPRP: the “shrunken log2 fold change” value is -0.35.

As for RRIRSRPPRLPRPRPRPKMSPRP, the “shrunken log2 fold change” value was -0.105.

Regarding RRIRDRPPRLPRPRPRPSVKPRP, the “shrunken log2 fold change” value is -0.256.

For the sequence RRIRARPPRLPRPRPRPFDKPRP, the “shrunken log2 fold change” value is -0.107.

In the case of RRIRLRPPRLPRPRPRPGVWPRP, the “shrunken log2 fold change” value amounted to 0.401.

For RRIRERPPRLPRPRPRPQEKPRP, the “shrunken log2 fold change” value is -0.015.

With RRIRPRPPRLPRPRPRPDRRPRP, the “shrunken log2 fold change” value was found to be 0.192.

With RRIRDRPPRLPRPRPRPISLPRP, the “shrunken log2 fold change” value is -0.0081.

With RRIRNRPPRLPRPRPRPSDCPRP, the “shrunken log2 fold change” value is -0.483.

In the case of RRIRNRPPRLPRPRPRPPQNPRP, the “shrunken log2 fold change” value was -0.0172.

On to RRIRSRPPRLPRPRPRPYFRPRP, for which the “shrunken log2 fold change” value is -0.853.

As for RRIRHRPPRLPRPRPRPDGMPRP, the “shrunken log2 fold change” value was -0.444.

Take RRIRWRPPRLPRPRPRPMKSPRP: the “shrunken log2 fold change” value was found to be 0.252.

As for RRIRIRPPRLPRPRPRPVECPRP, the “shrunken log2 fold change” value stood at 0.00902.

Regarding RRIRIRPPRLPRPRPRPYPAPRP, the “shrunken log2 fold change” value was -0.331.

Turning to RRIRDRPPRLPRPRPRPVNLPRP, the “shrunken log2 fold change” value stood at 0.0119.

Take RRIRVRPPRLPRPRPRPSRTPRP: the “shrunken log2 fold change” value was -0.47.

With RRIRLRPPRLPRPRPRPTFIPRP, the “shrunken log2 fold change” value was -0.528.

On to RRIRYRPPRLPRPRPRPVKLPRP, for which the “shrunken log2 fold change” value is 0.0698.

For the sequence RRIRVRPPRLPRPRPRPMTNPRP, the “shrunken log2 fold change” value was -0.256.

On to RRIRRRPPRLPRPRPRPQMEPRP, for which the “shrunken log2 fold change” value worked out at 0.0751.

With RRIRDRPPRLPRPRPRPDYGPRP, the “shrunken log2 fold change” value was -0.181.

Regarding RRIRWRPPRLPRPRPRPLCTPRP, the “shrunken log2 fold change” value turned out to be 0.106.

As to RRIRQRPPRLPRPRPRPPICPRP, the “shrunken log2 fold change” value was 0.0388.

As to RRIRNRPPRLPRPRPRPQKLPRP, the “shrunken log2 fold change” value was -0.188.

For RRIRYRPPRLPRPRPRPFGEPRP, the “shrunken log2 fold change” value was -0.00973.

For the sequence RRIRTRPPRLPRPRPRPTIRPRP, the “shrunken log2 fold change” value is -0.0471.

In the case of RRIRCRPPRLPRPRPRPDCDPRP, the “shrunken log2 fold change” value was -0.812.

In the case of RRIRMRPPRLPRPRPRPTPCPRP, the “shrunken log2 fold change” value turned out to be 0.746.

On to RRIRMRPPRLPRPRPRPQNSPRP, for which the “shrunken log2 fold change” value was -0.0933.

Consider RRIRQRPPRLPRPRPRPIYFPRP, for which the “shrunken log2 fold change” value is -0.115.

As for RRIRSRPPRLPRPRPRPTVTPRP, the “shrunken log2 fold change” value is 0.166.

Consider RRIRPRPPRLPRPRPRPPVIPRP, for which the “shrunken log2 fold change” value stood at 0.332.

As to RRIRARPPRLPRPRPRPSPHPRP, the “shrunken log2 fold change” value stood at 0.187.

Take RRIRRRPPRLPRPRPRPWQVPRP: the “shrunken log2 fold change” value worked out at 0.0694.

On to RRIRNRPPRLPRPRPRPYHDPRP, for which the “shrunken log2 fold change” value is -0.165.

As to RRIRIRPPRLPRPRPRPAYCPRP, the “shrunken log2 fold change” value was -0.23.

In the case of RRIRYRPPRLPRPRPRPVWKPRP, the “shrunken log2 fold change” value is 0.0654.
